The RNAGym collection of RNA variant scans (doi:10.1073/pnas.2313332121)
This sample holds only a part of the variants without activity.

B1: TPR 5TU (parent)
chain: GGAUCUUCUCGAUCUAACAAAAAAGACAAAUCUGCCACAAAGCUUGAGAGCAUCUUCGGAUGCAGAGGCGGCAGCCUUCGGUGGCGCGAUAGCGCCAACGUUCUCAACUAUGACACGCAAAACGCGUGCUCCGUUGAAUGGAGUUUAUCAUG

Variants of: B1
Assay: polymerase ribozyme fitness, log enrichment relative to wild type (log ratio); higher = more active; in vitro selection for triplet polymerase activity
How it was run: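 Fitness compares each genotype's enrichment to that of the wild type on a logarithmic scale, averaging replicates with inverse-variance weights. The logarithm is base 2. Enrichment came from Illumina sequencing of input and output libraries after one triplicate round of in vitro selection, which included frozen incubation at −7 °C, of PCR-built, transcribed mutant libraries of each subunit of a heterodimeric triplet polymerase ribozyme. Only genotypes with ≥10 input reads and ≥1 read per output were kept.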

Compared with GGAUCUUCUCGAUCUAACAAAAAAGACAAAUCUGCCACAAAGCUUGAGAGCAUCUUCGGAUGCAGAGGCGGCAGCAUUCGGGGGCGCGAUAGCGCCAACGUUCUCAACUAUGACACGCAAAACGCGUGCUCCGUUGAAUGGAGUUAAUCAUG [C76A U82G U146A], GGAUCUUCUCGAUCUAACAAAAAAGACAAAUCUGCCACAAAGCUUGAGAGCAUCUUCGGAUGCAGAGGCGGCAGCGUUCGGUGGCGCGAUAGCGCCUACGUUCUCAACUAUGACACGCAAAACGCGUGCUCCGUUGAAUGGAGUUUAUCAUG [C76G A97U] is lower in “polymerase ribozyme fitness (log ratio)” value: -0.356 for the first, no more than -4.2 for the second.

Compared with GGAUCUUCUCGAUCUAACAAAAAAGACAAAUCUGCCACAAAGCUUGAGAGCAUCUUCGGAUGCAGAGGCGGCAGCAUUCGGUGGCGGGAUAGUGCCAACGUUCUCAACUAUGACACGCAAAACGCGUGCUCCGUUGAAUGGAGUUUAUCAUG [C76A C87G C93U], GGAUCUUCUCGAUCUAACAAAAAAGACAAAUCUGCCACAAAGCUUGAGAGCAUCUUCGGAUGCAGAGGCGGCAGCAUUCGGUGGCGUGAUAACGCCAACGUUCUCAACUAUGACACGCAAAACGCGUGCUCCGUUGAAUGGAGUUUAUCAUG [C76A C87U G92A] is higher in “polymerase ribozyme fitness (log ratio)” value: no more than -4.2 for the first, -2.16 for the second.

First: GGAUCUUCUCGAUCUAACAAAAAAGACAAAUCUGCCACAAAGCUUGAGAGCAUCUUCGGAUGCAGAGGCGGCAGCAUUCGGUGGCGUGAUACCGCCAACGUUCUCAACUAUGACACGCAAAACGCGUGCUCCGUUGAAUGGAGUUUAUCAUG [C76A C87U G92C]
Second: GGAUCUUCUCGAUCUAACAAAAAAGACAAAUCUGCCACAAAGCUUGAGAGCAUCUUCGGAUGCAGAGGCGGCAGCAUUCGGUGGUGCGAUAGCGCCAACGUUCUCAACUAUGACACGCAAAACGCGUGCUCCGUUGGAUGGAGUUUAUCAUG [C76A C85U A137G]
The “polymerase ribozyme fitness (log ratio)” value of the first is lower: -2.48 for the first, -1.76 for the second.

Going from GGAUCUUCUCGAUCUAACAAAAAAGACAAAUCUGCCACAAAGCUUGAGAGCAUCUUCGGAUGCAGAGGCGGCAGCAUUCGGUGGCCCGAUAGCGCCAACGUUCUCAACUAUGACAGGCAAAAAGCGUGCUCCGUUGAAUGGAGUUUAUCAUG [C76A G86C C116G C123A] to GGAUCUUCUCGAUCUAACAAAAAAGACAAAUCUGCCACAAAGCUUGAGAGCAUCUUCGGAUGCAGAGGCGGCAGCAUUCGGUGGCGCGAUAGCGCCAACGUUCUCAACUAUGACACGCAAAACGCGUGCUCCGUUGAAUCGAGUUUAUCAUG [C76A G140C], the “polymerase ribozyme fitness (log ratio)” value falls from -2.66 to -3.36.

Compared with GGAUCUUCUCGAUCUAACAAAAAAGACAAAUCUGCCACAAAGCUUGAGAGCAUCUUCGGAUGCAGAGGCGGCAGCAUUCGGUGGCACGAUAGCGCCAACGUUCUCAACUAUGACACGCAAAACGCGUGCUCCGUUGAAUGGAGUUUAUCAUG [C76A G86A], GGAUCUUCUCGAUCUAACAAAAAAGACAAAUCUGCCACAAAGCUUGAGAGCAUCUUCGGAUGCAGAGGCGGCAGCAUUCGGUGGCGCGAUAGCGCUAACGUUCUCAACUAUGACACGCAACACGCGUGCUCCGUUGAAUGGAGUUUAUCAUG [C76A C96U A121C] is higher in “polymerase ribozyme fitness (log ratio)” value: -2.06 for the first, 0.584 for the second.

Compared with GGAUCUUCUCGAUCUAACAAAAAAGACAAAUCUGCCACAAAGCUUGAGAGCAUCUUCGGAUGCAGAGGCGGCAGCAUUCGGUGGCGUGAUAGCGCCAACGUUCUCAACUAUGACACGCAAAACGCGUGCUCCGUUGAAUGGAGUUUAUCAUG [C76A C87U], GGAUCUUCUCGAUCUAACAAAAAAGACAAAUCUGCCACAAAGCUUGAGAGCAUCUUCGGAUGCAGAGGCGGCAGCGUUCGGUGGCGCGAUAGCGCCAACGUUCUCGACUAUGACACGCAAAACGCGUGCUCCAUUGAAUGGAGUUUAUCAUG [C76G A106G G133A] is lower in “polymerase ribozyme fitness (log ratio)” value: -2.16 for the first, no more than -4.2 for the second.

First: GGAUCUUCUCGAUCUAACAAAAAAGACAAAUCUGCCACAAAGCUUGAGAGCAUCUUCGGAUGCAGAGGCGGCAGCAUUCGGUGGCGCGAUAGCGCCAACGUUCUCAACUAUGACACGCAAAACGCGUGCUCCGUUGAAUGGAGUGUAUCAUG [C76A U145G]
Second: GGAUCUUCUCGAUCUAACAAAAAAGACAAAUCUGCCACAAAGCUUGAGAGCAUCUUCGGAUGCAGAGGCGGCAGCAUUCGGUGGCGCGAUAGCGCCAACGUUCUCAACUAUGACACGCAAAACGCGUGCUCCGUUAAAUGGAGUUUAUCAUG [C76A G136A]
The “polymerase ribozyme fitness (log ratio)” value of the first is lower: -0.329 for the first, 0.971 for the second.

Going from GGAUCUUCUCGAUCUAACAAAAAAGACAAAUCUGCCACAAAGCUUGAGAGCAUCUUCGGAUGCAGAGGCGGCAGCAUUCGGUGGCGCGAUAGCGCCAACGUUCUCAACUAUGACACGCAAAACGCGUGCUCCGUUGAAUGGAUUUUAUCAUG [C76A G143U] to GGAUCUUCUCGAUCUAACAAAAAAGACAAAUCUGCCACAAAGCUUGAGAGCAUCUUCGGAUGCAGAGGCGGCAGCAUUCGGUAGCGCGAUAGCGCCAACGUUCUCAACUAUGACACGCAAAACGCGUGCUCCGGUGAAUGGAGUUUAUCAUG [C76A G83A U134G], the “polymerase ribozyme fitness (log ratio)” value falls from -3.02 to -3.45.

First: GGAUCUUCUCGAUCUAACAAAAAAGACAAAUCUGCCACAAAGCUUGAGAGCAUCUUCGGAUGCAGAGGCGGCAGCAUUCGGGGGCGCGAUAGCGCCAACGUUCUCAACUAUGACACGCAAAACGCGUGCUCCGUUGAAUGGAGUUUAUCAUG [C76A U82G]
Second: GGAUCUUCUCGAUCUAACAAAAAAGACAAAUCUGCCACAAAGCUUGAGAGCAUCUUCGGAUGCAGAGGCGGCAGCAUUCGGUGGCGCCAUAGCGCCAACGUUCUCAACUAUGACACGCAAAACGCGUGCUCCGUUGAAUGGAGUUUAUCAUG [C76A G88C]
The “polymerase ribozyme fitness (log ratio)” value of the first is higher: -1.94 for the first, no more than -4.2 for the second.

For GGAUCUUCUCGAUCUAACAAAAAAGACAAAUCUGCCACAAAGCUUGAGAGCAUCUUCGGAUGCAGAGGCGGCAGCAUUCGGUGGCGCGACAGCGCCAACGUUCUCAACUAUGACACGCAAAACGCGUGCUCCGUUGAAUGGAGUUGAUCAUG [C76A U90C U146G], the “polymerase ribozyme fitness (log ratio)” value was no more than -4.2.
